Patent EP1876240B1

Assays:
[1] = molecular target: rat GPVI-human Fc (rGPVI-hFc) (rat; mouse); test: ELISA on immobilized antigen; control
[2] = molecular target: human GPVI extracellular region-human Fc fusion protein (hGPVI-hFc) (human); test: ELISA on immobilized antigen; control
Sequence of human GPVI extracellular region-human Fc fusion protein (hGPVI-hFc) (human) (chain, as listed by the source limits assumed, form in doubt): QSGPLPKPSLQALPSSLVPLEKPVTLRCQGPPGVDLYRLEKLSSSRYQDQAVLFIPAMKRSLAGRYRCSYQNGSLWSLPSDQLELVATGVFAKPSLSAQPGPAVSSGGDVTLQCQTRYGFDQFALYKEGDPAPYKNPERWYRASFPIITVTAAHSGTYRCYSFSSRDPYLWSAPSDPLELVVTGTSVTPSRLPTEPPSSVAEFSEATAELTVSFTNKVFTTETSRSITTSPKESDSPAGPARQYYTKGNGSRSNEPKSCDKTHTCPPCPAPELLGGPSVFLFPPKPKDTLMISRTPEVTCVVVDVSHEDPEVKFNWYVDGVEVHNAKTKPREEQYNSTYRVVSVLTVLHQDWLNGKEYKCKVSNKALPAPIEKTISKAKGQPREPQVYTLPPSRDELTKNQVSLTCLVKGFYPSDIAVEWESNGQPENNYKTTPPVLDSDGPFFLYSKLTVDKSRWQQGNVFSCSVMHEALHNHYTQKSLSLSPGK

absorbance (ELISA) [1]: 0.123 | absorbance (ELISA) [2]: 0.026
Substance: Normal Mouse IgG (antibody)
